Assay: soluble on expression in E. coli; label from the status in PepcDB or PDB records

Sequence	soluble on expression in E. coli
MGHHHHHHSHMKTRQAFYLHTTKLTRIARRLCREILRPWHAARHPYLPINSAAIKAECTARLPEASQSPLVLKQAVRKPLEAVLRYLETHPRPPKPDPVKSVSSVLSSLTPAKVAPVINNGSPTILGKRSYEQHNGVDGNMKKRLLMPSRGLANHGQTRHMGPSRNLLLNGKSYPTKVRLIRGGSLPPVKRRRMNWIDAPDDVFYMATEETRKIRKLLSSSETKRAARRPYKPIALRQSQALPPRPPPPAPVNDEPIVIED	soluble
MGHHHHHHSHMKTTLKMTALAALSAFVLAGCGSHQMKSEGHANMQLQQQAVLGLNWMQDSGEYKALAYQAYNAAKVAFDHAKVAKGKKKAVVADLDETMLDNSPYAGWQVQNNKPFDGKDWTRWVDARQSRAVPGAVEFNNYVNSHNGKVFYVTNRKDSTEKSGTIDDMKRLGFNGVEESAFYLKKDKSAKAARFAEIEKQGYEIVLYVGDNLDDFGNTVYGKLNADRRAFVDQNQGKFGKTFIMLPNANYGGWEGGLAEGYFKKDTQGQIKARLDAVQAWDGK	not soluble
MGHHHHHHSHMLLTPRQDEIVALAKANGRVLVDELAARFSVTPQTIRKDLNDLCDTRVLTRIHGGALFPSGNENVKYEARRAIASVEKQAIGAAAAALIPNNSSLFINIGTTTEAVGEALADHHELMVITNNINVANRLRVFPGIEVVIAGGVVRGSDGGIVGEAAVDFIRQFKVDFAVIGVSAIDEDGALLDFDFREVKVAQAIISNARHVILVSDSLKFERTAPVRIGHLSQVHTFITDHCPVDSIRSICADHDVRLIETEARDA	soluble
MGHHHHHHSHMNFIKDNSRALIQRMGMTVIKQITDDLFVWNVLNREEVNIICCEKVEQDAARGIIHMILKKGSESCNLFLKSLKEWNYPLFQDLNGQSLFHQ	not soluble
MGHHHHHHSHMPKKKTGARKKAENRREREKQLRASRSTIDLAKHPCNASMECDKCQRRQKNRAFCYFCNSVQKLPICAQCGKTKCMMKSSDCVIKHAGVYSTGLAMVGAICDFCEAWVCHGRKCLSTHACACPLTDAECVECERGVWDHGGRIFSCSFCHNFLCEDDQFEHQASCQVLEAETFKCVSCNRLGQHSCLRCKACFCDDHTRSKVFKQEKGKQPPCPKCGHETQETKDLSMSTRSLKFGRQTGGEEGDGASGYDAYWKNLSSDKYGDTSYHDEEEDEYEAEDDEEEEDEGRKDSDTESSDLFTNLNLGRTYASGYAHYEEQEN	soluble
MGHHHHHHSHMQEEEEESWSTSSDLTISISEDDLILESPEPQPNPGGKMEGEDGIEALKLIHAEQERVALSTEKNCILQTLSSPDSEKESSTNAPTREPGQTPDSDVPRAQVGQHVATLKEHDNSVKEEATALLRKALTEECGRRSAIHSSESSCSLPSILNDNSGIKEAKPAVWLNSVPTREQEVSSGCGDKSKKENVAADIPITETEAYQLLKKATLQDNTNQTENRFQKTDASVSHLSGLNIGSGAFETKTANKIASEASFSSSEGSPLSRHENKKKPVINLKSNALWDESDDSNSEIEAALRPRNHNTDDSDDFYD	soluble
MGHHHHHHSHMQSYLPNDTVESGIHPVYFCSTHYIEMLLKAELPLVFSAFHMSGFAPSQICLQWITQCFWNYLDWIEICHYIATCVFLGPDYQVYICIAVFKHLQQDILQHTQTQDLQVFLKEEALHGFRVSDYFEYMEILEQNYRTVLLRDMRNIRLQST	not soluble
MGHHHHHHSHMRENNLHTVCEEAKCPNIHECWAVRRTATFMILGSVCTRACRFCAVKTGLPTELDLQEPERVADSVALMNLKHAVITAVARDDQKDGGAGIFAETVRAIRRKSPFTTIEVLPSDMGGNYDNLKTLMDTRPDILNHNIETVRRLTPRVRARATYDRSLEFLRRAKEMQPDIPTKSSIMIGLGETKEEIIEVMDDLLANNVDIMAIGQYLQPTKKHLKVQKYYHPDEFAELKEIAMQKGFSHCEAGPLVRSSYHADEQVNEASKKRQAQA	soluble
MGHHHHHHSHMRGCGSRRLCGSWRGCWSWSGKPSTSSRPSPTAALRSWNNENKSALQLERQVKELKLGEPGSYQPAETAAKAQLSLMALPGEGYGGGHLDNEEEAPRPMLNIPGDLESREAMVAFFNSAGASAQEEQSVCCQPLAHPVASSQKKPEAAAPAPETGGESVCGDTHWALQEAMEKLQQLYGRRRWT	not soluble
MGHHHHHHSHMTIYDQHMHTLYSFDSEAQLRDYLTQTKAPVVTTEHLEFDNPDDGGRDNLPDYARMKATQAALAEKFPNEFLLGIEAGYFAPADARFRQYLDNHDFDLTLLSFHHDGHYDYLDEQLITMPAKQQLEDYFERMLAGLKRFHDADVLAHFDYALRRFDITPDQLEAWGKPLLDQIFTIAVENDLALELNTKSMYRWGNAPLYDQAIAWYQAAGGHLFTIGSDAHEGPQYEANFADALAMLKRHGVKEIATYRQHQRTMVPIEPPVIDADNAY	soluble
MGHHHHHHSHMTSEQIPNRVLLFDGVCNLCNGAVQFIIKRDPDGLISFTSLQSETGQSLLKKSGLPTDRFDSFVFIEDGQVYTKSTAAIKVFRHLRGPWRLFVLFFAVPKPVRDMVYSFIAKNRYKWFGKKNECMLPSPSIKKRFLP	not soluble
MGHHHHHHSHMVALSNALSRVFGSLAGYKFPSFIQKGINALYVKIFKIDLSEFEPLENYRSLNALFTRSLKKERPFDKSPNICIAPCDALITECAFLDNDSALQIKGMPYKAHELVGEINPLSPSFFYANFYLSPKDYHHYHAPCDLEILEARYFAGKLLPVNKPSLHKNNNLFVGNERVTLVAKDIQGNRLYFVAVGALNVGKMRFNFDKNIQTNAKARFTQTYSYNPPIKVKKGDNLGNFEMGSTIVLFIQNTAFKDLKEKNVKFGESIGEFHAN	not soluble
MGHHHHHHSHMVPSSAETGGTNYLAPGGLSDSQLLLEPGDRSHWCVVAYWEEKTRVGRLYCVQEPSLDIFYDLPQGNGFCLGQLNSDNKSQLVQKVRSKIGCGIQLTREVDGVWVYNRSSYPIFIKSATLDNPDSRTLLVHKVFPGFSIKAFDYEKAYSLQRPNDHEFMQQPWTGFTVQISFVKGWGQCYTRQFISSCPCWLEVIFNSR	not soluble
MGHHHHHHSHMVVLRAGKKTFLPALCRAFACRGCQLAPERGAERRDTAPSGVSRFCPPRKSCHDWIGPPDKYSNLRPVHFYIPENESPLEQKLRKLRQETQEWNQQFWANQNLTFSKEKEEFIHSRLKTKGLGLRTESGQKATLNAEEMADFYKEFLSKNFQKHMYYNRDWYKRNFAITFFMGKVALERIWNKLKQKQKKRSN	not soluble
MGHHHHHHSHMYKFCANALKVILSLRGGVKVYNKENLPADSGFVIACTHSGWVDVITLGVGILPYQIHYMAKKELFQNKWIGSFLKKIHAFPVDRENPGPSSIKTPIKLLKEGEIVGIFPSGTRTSEDVPLKRGAVTIAQMGKAPLVPAAYQGPSSGKELFKKGKMKLIIGEPLHQADFAHLPSKERLAAMTEALNQRIKELENKLDQL	soluble
MGHHHHHHSHNQYPAELMRRFELYFQGPSSNKPRVIREVRADSVGKLVTVRGIVTRVSEVKPKMVVATYTCDQCGAETYQPIQSPTFMPLIMCPSQECQTNRSGGRLYLQTRGSRFIKFQEMKMQEHSDQVPVGNIPRSITVLVEGENTRIAQPGDHVSVTGIFLPILRTGFRQVVQGLLSETYLEAHRIVKMNKSEDDESGAGELTREELRQIAEEDFYEKLAASIAP	not soluble
MGHHHHHHSHPRNSCSLHYIHPYQPNEYLKALVAVGEICQDYDSDKMFPAFGFGARIPPEYTVSHDFAINFNEDNPECAGIQGVVEAYQSCLPKLQLYGPTNIAPIIQKVAKSASEETNTKEASQYFILLILTDGVITDMADTREAIVHASHLPMSVIIVGVGNADFSDMQMLDGDDGILRSPKGEPVLRDIVQFVPFRNFKHASPAALAKSVLAEVPNQVVDYYNGKGIKPKCSSEMYESSRTLAP	not soluble
MGHHHHHHSHQELASKRVDIQNKRFYLDVKQNAKGRFLKIAEVGAGGNKSRLTLSMSVAVEFRDYLGDFIEHYAQLGPSQPPDLAQAQDEPRRALKSEFLVRENRKYYMDLKENQRGRFLRIRQTVNRGPGLGSTQGQTIALPAQGLIEFRDALAKLIDDYGVEEEPAELPEGTSLTVDNKRFFFDVGSNKYGVFMRVSEVKPTYRNSITVPYKVWAKFGHTFCKYSEEMKKIQEK	not soluble
MGHHHHHHSHRLSPRDEYKPLDLSDSTLSYTETEATNSLITAPGEFSDASMSPDATKPSHWCSVAYWEHRTRVGRLYAVYDQAVSIFYDLPQGSGFCLGQLNLEQRSESVRRTRSKIGFGILLSKEPDGVWAYNRGEHPIFVNSPTLDAPGGRALVVRKVPPGYSIKVFDFERSGLQHAPEPDAADGPYDPNSVRISFAKGWGPCYSRQFITSCPCWLEILLNNPR	soluble
MGHHHHHHSHRSIGLKVGLEIHQQLDTREKLFCSCPAELGEEEHDEFVRQLRPTRSELGDVDPAALFEWRKGRLYIYQAPLNHSCLVEADEEPPHPINREAVAVAVAVAKALGSAIVDEVHVMRKTVIDGSNTSGFQRTAIVALGGSIRVGSKEVPIETIVIEEDAARKVGEKGRYVVYRLDRLGIPLIEIATAPVIESPGEAREVALAIGTMLRLTGKVKRGLGTIRQDLNVSIRGGAKTEIKGVQRLELIPRVIEYEVLRQLSLLRIR	not soluble
MGHHHHHHSHSMGVRSMATFVKTADVSILIDPGVSLAPKRYRLPPHRIEIERMNQKWEEIKEMMKKAEVAIITHYHYDHHDPNEVEIFSGKKLLLKHPTEKINRSQKGRAAYFLEQLKSVDVEIDYCDGKSYEFGNTVVELSKPVFHGADSRLGFVVEVYVEDGKSSFLFSSDVEGPNNEEQLAFMLEKSAEVVFIDGPMTYMLGYRFSQKSFESSVENLKRLIAEDVKTLVLDH	soluble
MGHHHRRDTERVCIRTRKIYDWVTRQVDVPLRSFSGEDLEAIFPMDHCRREGTICDFLGAQHTNPQHLTIRCFLTDADGNPIDSVVDQDALICQEITQPNGRQSVNVTLPSGETVTLQKVKALIKGHVVVQIVSPAGTVICQSKPIPFATAQTFILCAPEGTQLNCHISFFECDTSLVCTDNFAQLDVSITLCLEVQVEADVKIEVEARFCQPREELAEAVLCPTTKFPPQCPDVFPAM	not soluble
MGHPRSIRSFVLRQSHMTAAQQRAIDTLWDSFGIDYQATPADLDARFGSSRPKILEIGFGMGTATAEIARRLPETDFLAIDVHGPGVGNLLKLIDENHLENIRVMRHDAVEVVENMLQDGSLDGIHIFFPDPWHKKRHHKRRLIQAPFIAKLLPKLKTGGYIHLATDWEEYAQQMLEVLSSFDSLQNTAADYAPTPDYRPETKFEARGKRLGHGVWDLVFKRIGLEHHHHHH	soluble
MGIFRIQAYFFALIIALFFVACDSGENFKALNSDKTYNFAYNGFEKSLKLNDKAQNFALVFFTKDCGVCKEQIPILQNLAKNYDFNIFVVLGDANDANDAKAWADEKGLSNLAMFYEKRAAKYLSSAIGEIYGVPVLSFFKEGKMDEKFIGLTPYSILEKEIKKVKS	not soluble
MGIFSRFADIVNSNISALLDKAEDPEKMIRLIIQEMEDTLVEVRTNSAKAMADKKELARKVESIEQQLEDWQNKATLALTKQREDLARAALIEKQKLQHVLKGLHTEQMLVEETIEKLTGEIGKLETKITETRAKQQALAIRSQAASHRRDVQRHLHAGRTEEAMAKFEQFSRKVDELEAEADLYAQSGQARSLEQEFAELQAQDEIEKELNKLKAQMKSDQLEHHHHHH	soluble
MGIHLFWDSRVPVGLSRPVSEELSAVLEMPVSRIDDGIFPLEGFDPVRNQYDAVKVLLKLDMFRRRMPQIFKPADMDLEFYNKFNHLHEKILLVTPGDLYEPLADFVFGLAYPKLGVAIVSPHRLQNEFYGKYADDSALIDRIVKEGAHEIGHLFGLGHCDNPGCIMYCPRNLDELDRKRKYFCGKCRVQLNGDTLEDDLFSLEHHHHHH	soluble
